According to patent US20260022153A1 (AMIDEBIO, LLC, priority 2017, published 2026):

Key:
IGF1 receptor (IGF1R) = IGF1 receptor (IGF1R) (Homo sapiens, UniProt P08069); assay: Binding affinity of insulin analogs to the IGF1 receptor (IGF1R); settings: in the absence of glucose
insulin receptor = insulin receptor (Homo sapiens, UniProt P06213); settings: cited from earlier work
[1] = after one year in acidic formulations; cited from earlier work

Substance: SEQ ID NO: 5: single chain insulin analog […] (FVDQHLCGSHLVEALYLVCGERGFFYTPKTYDGKGIVEQCCTSICSLYQLENYCG)
- Kd (IGF1 receptor (IGF1R)): 30.4 nM

Substance: SEQ ID NO: 7: single chain insulin analog […] (FVGQHLCGSHLVEALYLVCGERGFFYTPKTYDGKGIVEQCCTSICSLYQLENYCG)
- Kd (IGF1 receptor (IGF1R)): 26.8 nM

Substance: Wakayama mutation ValA3Leu: insulin with a valine to leucine substitution at position A3 of Insulin Chain A, a naturally occurring mutation
- fold lower affinity for the insulin receptor compared to wildtype insulin (insulin receptor): 500 fold

Substance: insulin
- Kd (IGF1 receptor (IGF1R)): 5.66 nM
- AsnA21 deamidation [1]: 20-30%
